Patent publication US20160137746A1, “METHODS FOR TREATING HIGH CARDIOVASCULAR RISK PATIENTS WITH HYPERCHOLESTEROLEMIA” (Sanofi Biotechnology, priority 2014, published 2016)

Tested on: high cardiovascular risk patients with hypercholesterolemia
Experiment: ODYSSEY LONG TERM: long-term safety and tolerability
[1] = Final analysis, Safety Analysis
[2] = Final analysis, Safety Analysis (N = 1550)
[3] = Safety population, 223 patients, pre-specified analysis
[4] = Safety population, 562 patients, pre-specified analysis
[5] = Safety population, treatment period, pre-specified analysis, 150 Q2W
[6] = TEAE period, pre-specified analysis
[7] = alirocumab patients with two consecutive LDL-C <25 mg/dL (n = 562), pre-specified analysis

Protocol: Safety parameters (adverse events [including adjudicated cardiovascular events], laboratory data, vital signs, and ECG) were assessed throughout the study.
Safety endpoints assessed in this trial were: cardiovascular events; allergic events; local tolerability at injection site; other adverse events (including hemolytic anemia); laboratory tests: urinalysis, hematology (red blood cell count, red blood cell distribution width (RDW), reticulocyte count, hemoglobin, hematocrit, platelets, white blood cell count with differential blood count), standard chemistry (sodium, potassium, chloride, bicarbonate, calcium, phosphorous, urea nitrogen, creatinine, uric acid, total protein, albumin, LDH, γ Glutamyl Transferase [γGT]), Vitamin E (alpha tocopherol) and other Fat Soluble Vitamins, cortisol (and reflexive ACTH levels, as needed, followed by ACTH stimulation test, as needed), Gonadal Hormone Assessments, Hepatitis C antibody, liver panel (ALT, AST, ALP, and total bilirubin), and CPK; vital signs including heart rate and blood pressure; and 12-lead ECG.
The safety population included all randomized patients who received at least one dose or part of a dose of the double-blind IMP.
Safety analyses were descriptive, performed on the safety population according to treatment actually received. The safety analysis focused on the TEAE period defined as the time from the first dose of double-blind injection up to 70 days after the last double-blind injection. TEAE which developed, worsened or became serious or PCSA occurring after the patient's first injection in the open-label extension study (LTS13643) were not considered in the TEAE period. TEAE period was truncated at the common study cut-off date.

Alirocumab: human anti-PCSK9 antibody; HCVR SEQ ID NO:1, LCVR SEQ ID NO:6; CDRs SEQ ID NOs 2/3/4/7/8/10
Alanine aminotransferase >3 times ULN, % [1]: (1.8) % | Alanine aminotransferase >3 times ULN, n/N [1]: 28/1533 | Aspartate aminotransferase >3 times ULN, % [1]: (1.4) % | Aspartate aminotransferase >3 times ULN, n/N [1]: 22/1533 | Creatine kinase >3 times ULN, % [1]: (3.7) % | Creatine kinase >3 times ULN, n/N [1]: 56/1507 | Diabetes in patients with no history of diabetes, % [1]: (1.8) % | Diabetes in patients with no history of diabetes, n/N [1]: 18/994 | Worsening of diabetes in patients with history of diabetes, % [1]: (12.9) % | Worsening of diabetes in patients with history of diabetes, n/N [1]: 72/556 | Amnesia, % of patients [2]: (0.3) % | Amnesia, No. of patients [2]: 5 | CHD death including unknown cause, % of patients [2]: (0.3) % | CHD death including unknown cause, No. of patients [2]: 4 | Confusional state, % of patients [2]: (0.3) % | Confusional state, No. of patients [2]: 4 | Congestive heart failure requiring hospitalization, % of patients [2]: (0.6) % | Congestive heart failure requiring hospitalization, No. of patients [2]: 9 | Fatal and non-fatal ischemic stroke, % of patients [2]: (0.6) % | Fatal and non-fatal ischemic stroke, No. of patients [2]: 9 | General allergic reaction events, % of patients [2]: (10.1) % | General allergic reaction events, No. of patients [2]: 156 | Hemolytic anemia, No. of patients [2]: 0 | Ischemia-driven coronary revascularization procedure, % of patients [2]: (3.1) % | Ischemia-driven coronary revascularization procedure, No. of patients [2]: 48 | Local injection site reaction, % of patients [2]: (5.9) % | Local injection site reaction, No. of patients [2]: 91 | Memory impairment, % of patients [2]: (0.3) % | Memory impairment, No. of patients [2]: 4 | Myalgia, % of patients [2]: (5.4) % | Myalgia, No. of patients [2]: 84 | Neurocognitive disorders, % of patients [2]: (1.2) % | Neurocognitive disorders, No. of patients [2]: 18 | Neurological events, % of patients [2]: (4.2) % | Neurological events, No. of patients [2]: 65 | Non-fatal MI, % of patients [2]: (0.9) % | Non-fatal MI, No. of patients [2]: 14 | Ophthalmological events, % of patients [2]: (2.9) % | Ophthalmological events, No. of patients [2]: 35 | Positively adjudicated cardiovascular events (including all cardiovascular AEs listed above), % of patients [2]: (4.6) % | Positively adjudicated cardiovascular events (including all cardiovascular AEs listed above), No. of patients [2]: 72 | Post hoc analysis of a subgroup of adjudicated MACE, % of patients [2]: (1.7) % | Post hoc analysis of a subgroup of adjudicated MACE, No. of patients [2]: 27 | TEAEs leading to death, % of patients [2]: (0.5) % | TEAEs leading to death, No. of patients [2]: 8 | TEAEs leading to discontinuation, % of patients [2]: (7.2) % | TEAEs leading to discontinuation, No. of patients [2]: 111 | TEAEs, % of patients [2]: (81.0) % | TEAEs, No. of patients [2]: 1255 | Treatment-emergent SAEs, % of patients [2]: (18.7) % | Treatment-emergent SAEs, No. of patients [2]: 290 | Time to the first calculated LDL-C value <15 mg/dL, mean (SD) [3]: 12.99 (12.43) weeks | Time to the first calculated LDL-C value <15 mg/dL, median [3]: 8.14 weeks | Time to the first calculated LDL-C value <25 mg/dL, mean (SD) [4]: 11.03 (11.51) weeks | Time to the first calculated LDL-C value <25 mg/dL, median [4]: 4.86 weeks | Patients with 2 consecutive calculated LDL-C value <15 mg/dL, % [5]: (14.8%) | Patients with 2 consecutive calculated LDL-C value <15 mg/dL, n/N [5]: 223/1503 | Patients with 2 consecutive calculated LDL-C value <25 mg/dL, % [5]: (37.4%) | Patients with 2 consecutive calculated LDL-C value <25 mg/dL, n/N [5]: 562/1503 | Cardiovascular death per adjudication [6]: 5 (0.3%) n (%) | Patients with decreased plasma vitamin E levels below the outer limit of normal (31 out of 1461) [6]: 2.1% | SAEs [6]: 255 (16.5%) n (%) | AE of special interest: All adjudicated cardiovascular events, % of patients [7]: 4.3% | AE of special interest: General allergic reaction events, % of patients [7]: 8.0% | AE of special interest: Haemolytic anaemia, % (n) of patients [7]: 0 | AE of special interest: Neurocognitive disorders, % of patients [7]: 0.7% | AE of special interest: Neurological events, % of patients [7]: 3.2% | AE of special interest: Ophthalmological events, % of patients [7]: 2.5% | AE of special interest: Treament-emergent local injection site reactions, % of patients [7]: 6.2% | Neurocognitive AE: Amnesia, % (n) of patients [7]: 0 | Neurocognitive AE: Any neurocognitive disorder, % of patients [7]: 0.7% | Neurocognitive AE: Confusion postoperative, % (n) of patients [7]: 0 | Neurocognitive AE: Confusional state, % of patients [7]: 0.2% (1) | Neurocognitive AE: Dementia, % of patients [7]: 0.2% (1) | Neurocognitive AE: Disorientation, % (n) of patients [7]: 0 | Neurocognitive AE: Disturbance in attention, % (n) of patients [7]: 0 | Neurocognitive AE: Frontotemporal dementia, % of patients [7]: 0.2% (1) | Neurocognitive AE: Memory impairment, % (n) of patients [7]: 0 | Neurocognitive AE: Transient global amnesia, % (n) of patients [7]: 0 | TEAE ALT increase, % of patients [7]: 0.7% | TEAE AST increase, % of patients [7]: 0% | TEAE Angina pectoris, % of patients [7]: 1.8% (10) | TEAE Arthralgia, % of patients [7]: 3.2% (18) | TEAE Atrial fibrillation, % of patients [7]: 1.6% (9) | TEAE Back pain, % of patients [7]: 5.0% (28) | TEAE Bronchitis, % of patients [7]: 5.2% (29) | TEAE CPK increase, % of patients [7]: 0.2% | TEAE Cellulitis, % of patients [7]: 1.6% (9) | TEAE Confusion, % of patients [7]: 1.2% (7) | TEAE Constipation, % of patients [7]: 1.6% (9) | TEAE Cough, % of patients [7]: 2.0% (11) | TEAE Depression, % of patients [7]: 1.4% (8) | TEAE Diarrhea, % of patients [7]: 3.9% (22) | TEAE Dizziness, % of patients [7]: 1.4% (8) | TEAE Fall, % of patients [7]: 1.6% (9) | TEAE Fatigue, % of patients [7]: 3.0% (17) | TEAE Gastoenteritis, % of patients [7]: 0.7% (4) | TEAE Headache, % of patients [7]: 1.8% (10) | TEAE Hypertension, % of patients [7]: 2.0% (11) | TEAE Influenza, % of patients [7]: 4.1% (23) | TEAE Injection site reaction, % of patients [7]: 3.6% (20) | TEAE Lower respiratory tract infection (LRTI), % of patients [7]: 2.8% (16) | TEAE Muscle spasms, % of patients [7]: 2.8% (16) | TEAE Musculoskeletal pain, % of patients [7]: 1.4% (8) | TEAE Myalgia, % of patients [7]: 3.0% (17) | TEAE Nasopharyngitis, % of patients [7]: 10.0% (56) | TEAE Nausea, % of patients [7]: 0.9% (5) | TEAE Non-cardiac chest pain, % of patients [7]: 2.0% (11) | TEAE Osteoarthritis, % of patients [7]: 2.1% (12) | TEAE Pain in extremity, % of patients [7]: 2.1% (12) | TEAE Rhinitis, % of patients [7]: 1.2% (7) | TEAE Sinusitis, % of patients [7]: 3.0% (17) | TEAE Type-2 diabetes mellitus, % of patients [7]: 2.5% (14) | TEAE leading to death, % of patients [7]: 0.5% (3) | TEAEs by System-Organ-Class: Blood and lymphatic system disorders, % of patients [7]: 1.6% (9) | TEAEs by System-Organ-Class: Cardiac disorders, % of patients [7]: 7.5% (42) | TEAEs by System-Organ-Class: Ear and labyrinth disorders, % of patients [7]: 1.2% (7) | TEAEs by System-Organ-Class: Eye disorders, % of patients [7]: 6.4% (36) | TEAEs by System-Organ-Class: Gastrointestinal disorders, % of patients [7]: 13.7% (77) | TEAEs by System-Organ-Class: General disorders and administration site conditions, % of patients [7]: 11.0% (62) | TEAEs by System-Organ-Class: Injury, poisoning, and procedural complications, % of patients [7]: 10.5% (59)
